Experimental data reported in the supplement of paper PMC10567573.

B1: TRIM43 (parent)
chain: RAQMIRNEYRKLHPVLHKEEKQHL

Variants of: B1
Experiment: protein stability index of a GFP-peptide fusion (GPS, HEK-293T) (PSI 1-6); higher = more stable
Settings: c terminus: a fixed tail appended
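Also: lentivirally expressed fusions sorted by FACS into six bins by GFP to DsRed ratio, PSI derived from sequencing read proportions per bin multiplied by bin number.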

Protein stability index, by site and new letter:
K11: W 3.14 | T 3.42 | F 3.24 | G 3.76 | P 4.16 | E 4.15 | C 2.79 | S 2.96 | I 2.94 | V 3.4 | Q 3.51 | L 3.49 | Y 3.07 | R 3.4 | N 3.68 | A 3.14 | D 4.29 | M 3.35 | H 3.94
V15: G 3.88 | E 3.5 | L 2.63 | R 3.37 | Y 2.7 | M 3.67 | P 3.32 | Q 3.17 | K 3.29 | N 3.65 | D 3.64 | C 3 | H 2.98 | W 2.5 | A 3.39 | S 2.94 | T 3.13 | I 3.09
Y9: W 2.44 | V 3.91 | T 4.08
R10: A 3.08 | G 3.26 | F 3.4 | N 3.66 | Q 3.84 | M 2.91 | T 3.85 | P 3.76 | Y 3.31 | V 3.73 | W 2.99 | L 3.38 | I 3.75 | S 3.71 | H 3.39 | K 2.91 | E 4.09 | D 4.21 | C 3.19
H13: R 2.69 | C 3 | L 3.28 | M 2.94 | V 3.11 | Q 3.56 | E 4.06 | K 3.55 | N 3.35 | Y 2.83 | P 3.19 | F 2.82 | D 3.75 | G 3.2 | I 2.92 | T 3.1 | A 3.46 | W 2.61 | S 3.4
L12: P 3.96 | Q 3.36 | S 4.43 | I 3.07 | M 2.86 | G 4.18 | D 4.02 | E 4.06 | V 2.97 | C 3.03 | Y 3.75 | W 2.96 | T 3.85 | A 3.67 | R 3.94 | N 4.16 | H 4.27 | K 3.7 | F 2.94
K18: D 3.45 | H 3.59 | G 3.37 | L 2.95 | A 2.81 | E 4.06 | M 2.6 | N 3.2 | F 2.4 | Q 3.49 | C 2.7 | P 3.48 | I 2.6
L16: R 3.84 | I 3.31 | G 3.1 | E 4.04 | D 4.12 | C 2.71 | F 3.04 | P 3.92 | Y 2.52 | V 4.07 | S 3.65 | M 3.94 | A 3.52 | N 3.95 | Q 3.85 | K 3.85 | W 2.3 | T 3.57 | H 3.2
H17: A 2.37 | F 2.53 | W 2.8 | E 4.14 | D 3.5 | N 3.28 | K 4.15 | Q 3.07 | Y 2.96 | L 2.93 | V 3.74 | R 3.79 | S 2.67 | I 2.8 | G 3.56 | M 2.81 | P 3.42 | T 3.2 | C 2.58
P14: C 2.42 | I 2.44 | A 2.53 | S 2.04 | D 3.33 | L 3.51 | F 2.95 | N 2.64 | M 2.5 | Y 2.27 | R 3.23 | T 2.77 | V 2.59 | Q 2.51 | H 2.28 | W 2.51 | E 3.28 | G 3.11 | K 2.7
